Measurements: patent US20050221459A1 (DUKE UNIVERSITY, published 2005)
Ends that are not written are not given here. * marks the point of attachment. Geranylgeranyl = CC(C)=CCC/C(C)=C/CC/C(C)=C/CC/C(C)=C/C*; Farnesyl = CC(C)=CCC/C(C)=C/CC/C(C)=C/C*

B1: heterotrimeric G protein γ2 subunit peptide FREKKFFCAIL (SEQ ID NO: 13) (peptide)
peptide: FREKKFFCAIL
notes: Synthetic, Sigma-Genosys, >95% purity; also called y2
B2: Rap2a peptide DDPTASACNIQ (SEQ ID NO: 10) (peptide)
peptide: DDPTASACNIQ
notes: Synthetic, Sigma-Genosys, >95% purity; also called Rap2a (CNIQ)
B3: RhoB peptide KKSKTKCKVL (SEQ ID NO: 12) (peptide)
peptide: KKSKTKCKVL
notes: Synthetic, Sigma-Genosys, >95% purity
B4: Ca1a2X peptide KKKSKTKCVIL (SEQ ID NO: 1) (peptide)
peptide: KKKSKTKCVIL
notes: Synthetic, Sigma-Genosys, >95% purity; also called Rap2b chimera peptide; CVIL peptide
B5: K-Ras4B peptide KKKSKTKCVIM (SEQ ID NO: 8) (peptide)
peptide: KKKSKTKCVIM
notes: Synthetic, Sigma-Genosys, >95% purity; also called K-Ras4B (CVIM)
B6: Cdc42 splice isoform 2 peptide RRCVLL (SEQ ID NO: 14) (peptide)
peptide: RRCVLL
notes: Synthetic, Sigma-Genosys, >95% purity; also called Cdc42-II
B7: TC21 peptide KKSKTKCVIF (SEQ ID NO: 9) (peptide)
peptide: KKSKTKCVIF
notes: Synthetic, Sigma-Genosys, >95% purity; also called TC21 (CVIF)
B8: RhoB peptide GCINCCKVL (SEQ ID NO: 11) (peptide)
peptide: GCINCCKVL
notes: as for B3
B9: farnesylated-KKKSKTKCVIM product (SEQ ID NO: 8) (peptide)
peptide: KKKSKTKC(Farnesyl)VIM
notes: Product co-crystal with FTase, used as starting material for the TC21 soak; also called farnesylated product
B10: H-Ras peptide GCVLS (SEQ ID NO: 6) (peptide)
peptide: GCVLS
notes: Synthetic, Sigma-Genosys, >95% purity; also called H-Ras (CVLS)
B11: geranylgeranylated-KKKSKTKCVIL product (SEQ ID NO: 1) (peptide)
peptide: KKKSKTKC(Geranylgeranyl)VIL
notes: also called prenyl-peptide product; prenylated product

Columns and labels:
[1] = biological target: T1, Rat protein geranylgeranyl transferase type I (GGTase-I) (rat, UniProt Q04631 1-377; P53610 1-377); assay: X-ray crystal structure, ternary complex with 3'azaGGPP
Procedure: Rat GGTase-I was expressed and purified as previously described herein (see also SAtrickland et al., 1999). […] GGTase-I product co-crystals were first transferred stepwise from their mother liquor (1.3 M NH₄SO₄, 175 mM Na₃-citrate, 100 mM MES pH 6.3, and 20 mM DTT) to cyro-solvent (30% (w:v) sucrose, 900 mM Na₃-citrate, 100 mM MES pH 6.3, 10 mM TCEP, and 1 μM ZnCl₂) supplemented with 0.2 mM 3′azaGGPP and 0.2 mM of the appropriate Ca₁a₂X peptide (Sigma-Genosys, >95% purity). All crystals were soaked for a week to allow for ternary complex formation and flash-cooled in liquid nitrogen.
(§1) Diffraction data were collected at 100 K with an R-Axis IV image plate system (Molecular Structure Corp., The Woodlands, Tex., United States of America) mounted on a Rigaku RU-H3R rotating anode generator with double mirror optics (Molecular Structure Corp.). Diffraction data were also collected at the BioCARS and SER-CAT beamlines at the Advanced Photon Source, Argonne National Labs and at the X25 beamline at the National Synchrotron Light Source, Brookhaven National Labs (BNLNSLS).

[2] = biological target: Human protein farnesyltransferase (hFTase) (human, UniProt P49354 1-379; P49356 1-437); assay: X-ray crystal structure, ternary complex with FPT-II
Description: (§2) The FTase:FPTII: Ca₁a₂X complexes were transferred to cryoprotection solutions and flash-cooled in liquid nitrogen.
as §1
(§3) The structures were determined by rigid body refinement using either rat FTase (Brookhaven Protein Data Bank code 1 D8D) or human FTase (Brookhaven Protein Data Bank code 1JCQ) as the initial model with ligands removed. […] After rigid body refinement, FPT-II and the Ca₁a₂X peptides were fit into σA weighted Fₒ-Fc maps and the complexes refined against all data with |F|≧0 by iterative cycles of simulated annealing, minimization, individual B-factor refinement, and model building. Refinements were carried out using CNS v1.0 (Brünger et al., 1998) and models built using O (Jones et al., 1991).

[3] = biological target: T1, Rat protein geranylgeranyl transferase …; assay: X-ray crystal structure, ternary Complex 2 with 3'AzaGGPP
Procedure: (§4) GGTase-I crystals were grown at 17° C. in hanging drops using equal volumes of protein and reservoir solution (1.3 M NH₄SO₄, 175 mM Na₃ citrate pH 6.5, 20 mM DTT and 100 mM MES, pH 6.3). Micro-seeds were added after equilibration to control nucleation. Seeding solution was produced by crushing GGTase-I crystals in stabilizing solution (1.5 M NH₄SO₄, 175 mM Na₃ citrate pH 6.5, 5 mM ZnCl₂, 20 mM DTT and 100 mM MES, pH 6.3). […] For data collection crystals were transferred stepwise into cryosolvent (30% (w:v) sucrose, 1.8 M NH₄SO₄, 5 mM ZnCl₂, 10 mM TCEP, and 100 mM MES, pH 6.3) before flash-freezing in liquid nitrogen. Derivative crystals were soaked 18 hours in cryosolvent containing 1 mM Di-m-iodobis (ethylenediamine) diplatinum (II) nitrate (PIP) and no TCEP.

[4] = biological target: T2, Rat protein farnesyltransferase (rFTase) (rat, UniProt Q04631 1-377; Q02293 1-437); assay: X-ray crystal structure, ternary complex with FPT-II
Description: as §2, §1, §3

[5] = biological target: T2, Rat protein farnesyltransferase (rFTase); assay: co-crystal of the product complex
[6] = biological target: T2, Rat protein farnesyltransferase (rFTase); assay: X-ray crystal structure, FTase complexed with FPT-II and peptide (FIG. 16)
Description: as §2, §1, §3

[7] = biological target: T1, Rat protein geranylgeranyl transferase …; assay: X-ray crystal structure, product Complex 3
Procedure: as §4

| Binder | binding result [1] | also measured |
| --- | --- | --- |
| B1 | binds | – |
| B2 | – | binding result [2]: binds |
| B3 | binds | – |
| B4 | – | binding result [3]: binds |
| B5 | binds | – |
| B6 | binds | – |
| B7 | binds | binding result [4]: binds |
| B8 | binds | – |
| B9 | – | binding result [5]: binds |
| B10 | – | binding result [6]: binds |
| B11 | – | binding result [7]: binds |
